B1: 2.8.6 (antibody, V domains shown)
VH: QVQLKESGPGLVAPSQSLSITCTVSGFSLTTYGVHWVRQSPGKGLEWLGVMWPGGRTSYNPAPMSRLSISKDNSKSQVFLKMNSLQTDDTAMYYCVRGDYEYDYYAMDYWGQGTSVTVSS
VL: QIVLSQSPAILSASPGEKVTMTCRASSSVSYMHWYQQKPGSSPKPWIYATSNLASGVPARFSGSGSGTSYSLTISRMEAEDAATYYCHQWSSNPYTFGGGTKLEIK
notes: mouse IgG1k hybridoma antibody; also called clone 2.8.6
B2: 11.5.1 (antibody, V domains shown)
VH: EVQLQESGPSLVKPSQTLSLTCSVTGDSITSAYWNWIRKFPGNKLEYMGYISYSGSTYFNPSLKSRISITRNTSKNQYYLQLNSVTTEDTATYYCARSHYYGYYFDYWGHGTTLTVSS
VL: DIVLTQSPASLAVSLGQRATISCRASETIDSYGDSLMHWYQQKAGQPPKLLIYRASNLESGIPARFSGSGSRTDFTLTINPVEADDVATYYCQQTDEDPYTFGGGTKLEIK
notes: mouse IgG1k hybridoma antibody

What was measured:
Test in all cases: flow cytometry, GFP-positive transfected HEK-293T cells, fluorochrome-conjugated antibody at 10 ug/ml, Geo-mean relative to wild type;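 note: cells express mutant human BTLA ectodomain fused to murine CD28 transmembrane and cytoplasmic parts, stained 48 h after transfection for 1 h at 4 °C alongside a Live/Dead dye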
N108R = molecular target: T1, N108R (Mus musculus)
T1 construct: transmembrane and intracellular regions; also called BTLA N108R construct
T1 sequence (Q7Z6A9 31-151 N108R): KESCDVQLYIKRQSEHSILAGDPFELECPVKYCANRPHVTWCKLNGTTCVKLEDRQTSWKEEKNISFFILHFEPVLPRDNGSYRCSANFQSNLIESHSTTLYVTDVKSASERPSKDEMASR
Protocol: (§1) Constructs encoding the human extracellular region of BTLA with the transmembrane and intracellular regions of murine CD28 were cloned into the bi-cistronic mammalian expression vector pGFP2-n2 (BioSignal Packard Ltd), which also encodes GFP. […] Mock and no-transfection controls were included with each experiment. Cells were harvested at 48 hours and stained with fluorochrome-conjugated anti-BTLA antibody at 10 μg/ml, alongside a Live/Dead marker, in PBS, 0.05% azide, 2% FCS (FACS buffer) for 1 h at 4° C. Cells were washed, pelleted and resuspended in 200 μl FACS buffer before being analysed on a BD FACSCanto flow cytometer. […] For each mutant the Geo-mean of anti-BTLA antibody binding to transfected cells was expressed as a percentage of binding to the wild-type receptor (FIG. 3b). A panel of anti-BTLA antibodies was assessed and any mutation that eliminated binding of all antibodies was excluded from the analysis, on the assumption that such mutations lead to drastic changes in protein folding or expression rather than indicating an antibody epitope.

L123R = molecular target: T2, L123R (Mus musculus)
T2 construct: transmembrane and intracellular regions; also called BTLA L123R construct
Protocol: as §1

Q86R = molecular target: T3, Q86R (Mus musculus)
T3 construct: transmembrane and intracellular regions; also called BTLA Q86R construct
Protocol: as §1

Q120R = molecular target: T4, Q120R (Mus musculus)
T4 construct: transmembrane and intracellular regions; also called BTLA Q120R construct
Protocol: as §1

P53R = molecular target: T5, P53R (Mus musculus)
T5 construct: transmembrane and intracellular regions; also called BTLA P53R construct
T5 sequence (Q7Z6A9 31-151 P53R): as the sequence (Q7Z6A9 31-151 N108R) above, with P23R, R78N counted along it
Protocol: as §1

E83R = molecular target: T6, E83R (Mus musculus)
T6 construct: transmembrane and intracellular regions; also called BTLA E83R construct
Protocol: as §1

E55R = molecular target: T7, E55R (Mus musculus)
T7 construct: transmembrane and intracellular regions; also called BTLA E55R construct
Protocol: as §1

E57R = molecular target: T8, E57R (Mus musculus)
T8 construct: transmembrane and intracellular regions; also called BTLA E57R construct
T8 sequence (Q7Z6A9 31-151 E57R): as the sequence (Q7Z6A9 31-151 N108R) above, with E27R, R78N counted along it
Protocol: as §1

K137E = molecular target: T9, K137E (Mus musculus)
T9 construct: transmembrane and intracellular regions; also called BTLA K137E construct
T9 sequence (Q7Z6A9 31-151 K137E): as the sequence (Q7Z6A9 31-151 N108R) above, with R78N, K107E counted along it
Protocol: as §1

D35R = molecular target: T10, D35R (Mus musculus)
T10 construct: transmembrane and intracellular regions; also called BTLA D35R construct
T10 sequence (Q7Z6A9 31-151 D35R): as the sequence (Q7Z6A9 31-151 N108R) above, with D5R, R78N counted along it
Protocol: as §1

T78R = molecular target: T11, T78R (Mus musculus)
T11 construct: transmembrane and intracellular regions; also called BTLA T78R construct
T11 sequence (Q7Z6A9 31-151 T78R): as the sequence (Q7Z6A9 31-151 N108R) above, with T48R, R78N counted along it
Protocol: as §1

L106R = molecular target: T12, L106R (Mus musculus)
T12 construct: transmembrane and intracellular regions; also called BTLA L106R construct
Protocol: as §1

K81L = molecular target: T13, K81L (Mus musculus)
T13 construct: transmembrane and intracellular regions; also called BTLA K81L construct
Protocol: as §1

Y132R = molecular target: T14, Y132R (Mus musculus)
T14 construct: transmembrane and intracellular regions; also called BTLA Y132R construct
T14 sequence (Q7Z6A9 31-151 Y132R): as the sequence (Q7Z6A9 31-151 N108R) above, with R78N, Y102R counted along it
Protocol: as §1

S47R = molecular target: T15, S47R (Mus musculus)
T15 construct: transmembrane and intracellular regions; also called BTLA S47R construct
T15 sequence (Q7Z6A9 31-151 S47R): as the sequence (Q7Z6A9 31-151 N108R) above, with S17R, R78N counted along it
Protocol: as §1

V80R = molecular target: T16, V80R (Mus musculus)
T16 construct: transmembrane and intracellular regions; also called BTLA V80R construct
Protocol: as §1

E103R = molecular target: T17, E103R (Mus musculus)
T17 construct: transmembrane and intracellular regions; also called BTLA E103R construct
T17 sequence (Q7Z6A9 31-151 E103R): as the sequence (Q7Z6A9 31-151 N108R) above, with E73R, R78N counted along it
Protocol: as §1

E45R = molecular target: T18, E45R (Mus musculus)
T18 construct: transmembrane and intracellular regions; also called BTLA E45R construct
T18 sequence (Q7Z6A9 31-151 E45R): as the sequence (Q7Z6A9 31-151 N108R) above, with E15R, R78N counted along it
Protocol: as §1

N65R = molecular target: T19, N65R (Mus musculus)
T19 construct: transmembrane and intracellular regions; also called BTLA N65R construct
Protocol: as §1

S121R = molecular target: T20, S121R (Mus musculus)
T20 construct: transmembrane and intracellular regions; also called BTLA S121R construct
T20 sequence (Q7Z6A9 31-151 S121R): as the sequence (Q7Z6A9 31-151 N108R) above, with R78N, S91R counted along it
Protocol: as §1

D52R = molecular target: T21, D52R (Mus musculus)
T21 construct: transmembrane and intracellular regions; also called BTLA D52R construct
Protocol: as §1

Q43R = molecular target: T22, Q43R (Mus musculus)
T22 construct: transmembrane and intracellular regions; also called BTLA Q43R construct
T22 sequence (Q7Z6A9 31-151 Q43R): as the sequence (Q7Z6A9 31-151 N108R) above, with Q13R, R78N counted along it
Protocol: as §1

R42E = molecular target: T23, R42E (Mus musculus)
T23 construct: transmembrane and intracellular regions; also called BTLA R42E construct
Protocol: as §1

| Binder | binding as % of binding to wild-type BTLA (N108R) [%] | binding as % of binding to wild-type BTLA (L123R) [%] | binding as % of binding to wild-type BTLA (Q86R) [%] | binding as % of binding to wild-type BTLA (Q120R) [%] | binding as % of binding to wild-type BTLA (P53R) [%] | binding as % of binding to wild-type BTLA (E83R) [%] | binding as % of binding to wild-type BTLA (E55R) [%] | binding as % of binding to wild-type BTLA (E57R) [%] | binding as % of binding to wild-type BTLA (K137E) [%] | binding as % of binding to wild-type BTLA (D35R) [%] | binding as % of binding to wild-type BTLA (T78R) [%] | binding as % of binding to wild-type BTLA (L106R) [%] | binding as % of binding to wild-type BTLA (K81L) [%] | binding as % of binding to wild-type BTLA (Y132R) [%] | binding as % of binding to wild-type BTLA (S47R) [%] | binding as % of binding to wild-type BTLA (V80R) [%] | binding as % of binding to wild-type BTLA (E103R) [%] | binding as % of binding to wild-type BTLA (E45R) [%] | binding as % of binding to wild-type BTLA (N65R) [%] | binding as % of binding to wild-type BTLA (S121R) [%] | further results |
| --- | --- | --- | --- | --- | --- | --- | --- | --- | --- | --- | --- | --- | --- | --- | --- | --- | --- | --- | --- | --- | --- |
| B1 | 107 | 97.4 | 97.9 | 76.3 | 55.6 | 98.8 | 52 | 76.3 | 80.1 | 83.7 | 95.3 | 80.4 | 90.3 | 68.2 | 99.7 | 71.6 | 79 | 96.3 | 89 | 67.9 | binding as % of binding to wild-type BTLA (D52R): 70.2%; binding as % of binding to wild-type BTLA (Q43R): 87.9%; binding as % of binding to wild-type BTLA (R42E): 111% |
| B2 | 171 | 116 | 132 | 89.9 | 117 | 95.5 | 60.5 | 108 | 55.6 | 71.2 | 109 | 135 | 116 | 68.1 | 108 | 39.9 | 213 | 108 | 87.9 | 42.5 | binding as % of binding to wild-type BTLA (D52R): 129%; binding as % of binding to wild-type BTLA (Q43R): 55.2%; binding as % of binding to wild-type BTLA (R42E): 72.3% |
